We go through three substances from patent US11254745.

Experiment [1] concerns the target extracellular domain of hCD4 fused with human Fc tag (hCD4-hFc) (human) (UniProt P01730). In words: ELISA on human CD4, OD450; fitted EC50 of the control in the table under the graph (unit from the graph's axis).
Experiment [2] has the same target. In words: ELISA on plate-coated CD4-hFc, OD450; fitted EC50 of the negative control in the table under the graph (unit from the graph's axis).

The substance Isotype IgG1 (antibody) returned an EC50 in experiment [1] of 4.48 µg/mL.
Take hIgG1 (antibody): the EC50 in experiment [1] was determined as 0.78 µg/mL.
Regarding mIgG1 (antibody), the EC50 in experiment [2] is 0.542 µg/mL.
